In patent publication US20240287139:

Biological target: the compound of Formula IV

Row | Protein | compound-induced DNA cleavage compared to wildtype MtbGyrase
1 | MtbGyrase with MtbGyrAP353L (protein) chain 1: TDTTLPPDDSLDRIEPVDIEQEMQRSYIDYAMSVIVGRALPEVRDGLKPVHRRVLYAMFDSGFRPDRSHAKSARSVAETMGNYHPHGDASIYDSLVRMAQPWSLRYPLVDGQGNFGSPGNDPPAAMRYTEARLTPLAMEMLREIDEETVDFIPNYDGRVQEPTVLPSRFPNLLANGSGGIAVGMATNIPPHNLRELADAVFWALENHDADEEETLAAVMGRVKGPDFPTAGLIVGSQGTADAYKTGRGSIRMRGVVEVEEDSRGRTSLVITELPYQVNHDNFITSIAEQVRDGKLAGISNIEDQSSDRVGLRIVIEIKRDAVAKVVINNLYKHTQLQTSFGANMLAIVDGVLRTLRLDQLIRYYVDHQLDVIVRRTTYRLRKANERAHILRGLVKALDALDEVIALIRASETVDIARAGLIELLDIDEIQAQAILDMQLRRLAALERQRIIDDLAKIEAEIADLEDILAKPERQRGIVRDELAEIVDRHGDDRRTRIIAADGDVSDEDLIAREDVVVTITETGYAKRTKTDLYRSQKRGGKGVQGAGLKQDDIVAHFFVCSTHDLILFFTTQGRVYRAKAYDLPEASRTARGQHVANLLAFQPEERIAQVIQIRGYTDAPYLVLATRNGLVKKSKLTDFDSNRSGGIVAVNLRDNDELVGAVLCSAGDDLLLVSANGQSIRFSATDEALRPMGRATSGVQGMRFNIDDRLLSLNVVREGTYLLVATSGGYAKRTAIEEYPVQGRGGKGVLTVMYDRRRGRLVGALIVDDDSELYAVTSGGGVIRTAARQVRKAGRQTKGVRLMNLGEGDTLLAIARNAEESGDDNAVDANGADQTGN chain 2: MAAQKKKAQDEYGAASITILEGLEAVRKRPGMYIGSTGERGLHHLIWEVVDNAVDEAMAGYATTVNVVLLEDGGVEVADDGRGIPVATHASGIPTVDVVMTQLHAGGKFDSDAYAISGGLHGVGVSVVNALSTRLEVEIKRDGYEWSQVYEKSEPLGLKQGAPTKKTGSTVRFWADPAVFETTEYDFETVARRLQEMAFLNKGLTINLTDERVTQDEVVDEVVSDVAEAPKSASERAAESTAPHKVKSRTFHYPGGLVDFVKHINRTKNAIHSSIVDFSGKGTGHEVEIAMQWNAGYSESVHTFANTINTHEGGTHEEGFRSALTSVVNKYAKDRKLLKDKDPNLTGDDIREGLAAVISVKVSEPQFEGQTKTKLGNTEVKSFVQKVCNEQLTHWFEANPTDAKVVVNKAVSSAQARIAARKARELVRRKSATDIGGLPGKLADCRSTDPRKSELYVVEGDSAGGSAKSGRDSMFQAILPLRGKIINVEKARIDRVLKNTEVQAIITALGTGIHDEFDIGKLRYHKIVLMADADVDGQHISTLLLTLLFRFMRPLIENGHVFLAQPPLYKLKWQRSDPEFAYSDRERDGLLEAGLKAGKKINKEDGIQRYKGLGEMDAKELWETTMDPSVRVLRQVTLDDAAAADELFSILMGEDVDARRSFITRNAKDVRFLDV | reduced cleavage (5 to 100-fold)
2 | MtbGyrase with MtbGyrAA32V (protein) chain 1: TDTTLPPDDSLDRIEPVDIEQEMQRSYIDYVMSVIVGRALPEVRDGLKPVHRRVLYAMFDSGFRPDRSHAKSARSVAETMGNYHPHGDASIYDSLVRMAQPWSLRYPLVDGQGNFGSPGNDPPAAMRYTEARLTPLAMEMLREIDEETVDFIPNYDGRVQEPTVLPSRFPNLLANGSGGIAVGMATNIPPHNLRELADAVFWALENHDADEEETLAAVMGRVKGPDFPTAGLIVGSQGTADAYKTGRGSIRMRGVVEVEEDSRGRTSLVITELPYQVNHDNFITSIAEQVRDGKLAGISNIEDQSSDRVGLRIVIEIKRDAVAKVVINNLYKHTQLQTSFGANMLAIVDGVPRTLRLDQLIRYYVDHQLDVIVRRTTYRLRKANERAHILRGLVKALDALDEVIALIRASETVDIARAGLIELLDIDEIQAQAILDMQLRRLAALERQRIIDDLAKIEAEIADLEDILAKPERQRGIVRDELAEIVDRHGDDRRTRIIAADGDVSDEDLIAREDVVVTITETGYAKRTKTDLYRSQKRGGKGVQGAGLKQDDIVAHFFVCSTHDLILFFTTQGRVYRAKAYDLPEASRTARGQHVANLLAFQPEERIAQVIQIRGYTDAPYLVLATRNGLVKKSKLTDFDSNRSGGIVAVNLRDNDELVGAVLCSAGDDLLLVSANGQSIRFSATDEALRPMGRATSGVQGMRFNIDDRLLSLNVVREGTYLLVATSGGYAKRTAIEEYPVQGRGGKGVLTVMYDRRRGRLVGALIVDDDSELYAVTSGGGVIRTAARQVRKAGRQTKGVRLMNLGEGDTLLAIARNAEESGDDNAVDANGADQTGN chain 2: MAAQKKKAQDEYGAASITILEGLEAVRKRPGMYIGSTGERGLHHLIWEVVDNAVDEAMAGYATTVNVVLLEDGGVEVADDGRGIPVATHASGIPTVDVVMTQLHAGGKFDSDAYAISGGLHGVGVSVVNALSTRLEVEIKRDGYEWSQVYEKSEPLGLKQGAPTKKTGSTVRFWADPAVFETTEYDFETVARRLQEMAFLNKGLTINLTDERVTQDEVVDEVVSDVAEAPKSASERAAESTAPHKVKSRTFHYPGGLVDFVKHINRTKNAIHSSIVDFSGKGTGHEVEIAMQWNAGYSESVHTFANTINTHEGGTHEEGFRSALTSVVNKYAKDRKLLKDKDPNLTGDDIREGLAAVISVKVSEPQFEGQTKTKLGNTEVKSFVQKVCNEQLTHWFEANPTDAKVVVNKAVSSAQARIAARKARELVRRKSATDIGGLPGKLADCRSTDPRKSELYVVEGDSAGGSAKSGRDSMFQAILPLRGKIINVEKARIDRVLKNTEVQAIITALGTGIHDEFDIGKLRYHKIVLMADADVDGQHISTLLLTLLFRFMRPLIENGHVFLAQPPLYKLKWQRSDPEFAYSDRERDGLLEAGLKAGKKINKEDGIQRYKGLGEMDAKELWETTMDPSVRVLRQVTLDDAAAADELFSILMGEDVDARRSFITRNAKDVRFLDV | reduced cleavage (5 to 100-fold)
3 | MtbGyrase with MtbGyrAM33A (protein) chain 1: TDTTLPPDDSLDRIEPVDIEQEMQRSYIDYAASVIVGRALPEVRDGLKPVHRRVLYAMFDSGFRPDRSHAKSARSVAETMGNYHPHGDASIYDSLVRMAQPWSLRYPLVDGQGNFGSPGNDPPAAMRYTEARLTPLAMEMLREIDEETVDFIPNYDGRVQEPTVLPSRFPNLLANGSGGIAVGMATNIPPHNLRELADAVFWALENHDADEEETLAAVMGRVKGPDFPTAGLIVGSQGTADAYKTGRGSIRMRGVVEVEEDSRGRTSLVITELPYQVNHDNFITSIAEQVRDGKLAGISNIEDQSSDRVGLRIVIEIKRDAVAKVVINNLYKHTQLQTSFGANMLAIVDGVPRTLRLDQLIRYYVDHQLDVIVRRTTYRLRKANERAHILRGLVKALDALDEVIALIRASETVDIARAGLIELLDIDEIQAQAILDMQLRRLAALERQRIIDDLAKIEAEIADLEDILAKPERQRGIVRDELAEIVDRHGDDRRTRIIAADGDVSDEDLIAREDVVVTITETGYAKRTKTDLYRSQKRGGKGVQGAGLKQDDIVAHFFVCSTHDLILFFTTQGRVYRAKAYDLPEASRTARGQHVANLLAFQPEERIAQVIQIRGYTDAPYLVLATRNGLVKKSKLTDFDSNRSGGIVAVNLRDNDELVGAVLCSAGDDLLLVSANGQSIRFSATDEALRPMGRATSGVQGMRFNIDDRLLSLNVVREGTYLLVATSGGYAKRTAIEEYPVQGRGGKGVLTVMYDRRRGRLVGALIVDDDSELYAVTSGGGVIRTAARQVRKAGRQTKGVRLMNLGEGDTLLAIARNAEESGDDNAVDANGADQTGN chain 2: MAAQKKKAQDEYGAASITILEGLEAVRKRPGMYIGSTGERGLHHLIWEVVDNAVDEAMAGYATTVNVVLLEDGGVEVADDGRGIPVATHASGIPTVDVVMTQLHAGGKFDSDAYAISGGLHGVGVSVVNALSTRLEVEIKRDGYEWSQVYEKSEPLGLKQGAPTKKTGSTVRFWADPAVFETTEYDFETVARRLQEMAFLNKGLTINLTDERVTQDEVVDEVVSDVAEAPKSASERAAESTAPHKVKSRTFHYPGGLVDFVKHINRTKNAIHSSIVDFSGKGTGHEVEIAMQWNAGYSESVHTFANTINTHEGGTHEEGFRSALTSVVNKYAKDRKLLKDKDPNLTGDDIREGLAAVISVKVSEPQFEGQTKTKLGNTEVKSFVQKVCNEQLTHWFEANPTDAKVVVNKAVSSAQARIAARKARELVRRKSATDIGGLPGKLADCRSTDPRKSELYVVEGDSAGGSAKSGRDSMFQAILPLRGKIINVEKARIDRVLKNTEVQAIITALGTGIHDEFDIGKLRYHKIVLMADADVDGQHISTLLLTLLFRFMRPLIENGHVFLAQPPLYKLKWQRSDPEFAYSDRERDGLLEAGLKAGKKINKEDGIQRYKGLGEMDAKELWETTMDPSVRVLRQVTLDDAAAADELFSILMGEDVDARRSFITRNAKDVRFLDV | reduced cleavage (5 to 100-fold)
4 | MtbGyrase with MtbGyrAI36F (protein) chain 1: TDTTLPPDDSLDRIEPVDIEQEMQRSYIDYAMSVFVGRALPEVRDGLKPVHRRVLYAMFDSGFRPDRSHAKSARSVAETMGNYHPHGDASIYDSLVRMAQPWSLRYPLVDGQGNFGSPGNDPPAAMRYTEARLTPLAMEMLREIDEETVDFIPNYDGRVQEPTVLPSRFPNLLANGSGGIAVGMATNIPPHNLRELADAVFWALENHDADEEETLAAVMGRVKGPDFPTAGLIVGSQGTADAYKTGRGSIRMRGVVEVEEDSRGRTSLVITELPYQVNHDNFITSIAEQVRDGKLAGISNIEDQSSDRVGLRIVIEIKRDAVAKVVINNLYKHTQLQTSFGANMLAIVDGVPRTLRLDQLIRYYVDHQLDVIVRRTTYRLRKANERAHILRGLVKALDALDEVIALIRASETVDIARAGLIELLDIDEIQAQAILDMQLRRLAALERQRIIDDLAKIEAEIADLEDILAKPERQRGIVRDELAEIVDRHGDDRRTRIIAADGDVSDEDLIAREDVVVTITETGYAKRTKTDLYRSQKRGGKGVQGAGLKQDDIVAHFFVCSTHDLILFFTTQGRVYRAKAYDLPEASRTARGQHVANLLAFQPEERIAQVIQIRGYTDAPYLVLATRNGLVKKSKLTDFDSNRSGGIVAVNLRDNDELVGAVLCSAGDDLLLVSANGQSIRFSATDEALRPMGRATSGVQGMRFNIDDRLLSLNVVREGTYLLVATSGGYAKRTAIEEYPVQGRGGKGVLTVMYDRRRGRLVGALIVDDDSELYAVTSGGGVIRTAARQVRKAGRQTKGVRLMNLGEGDTLLAIARNAEESGDDNAVDANGADQTGN chain 2: MAAQKKKAQDEYGAASITILEGLEAVRKRPGMYIGSTGERGLHHLIWEVVDNAVDEAMAGYATTVNVVLLEDGGVEVADDGRGIPVATHASGIPTVDVVMTQLHAGGKFDSDAYAISGGLHGVGVSVVNALSTRLEVEIKRDGYEWSQVYEKSEPLGLKQGAPTKKTGSTVRFWADPAVFETTEYDFETVARRLQEMAFLNKGLTINLTDERVTQDEVVDEVVSDVAEAPKSASERAAESTAPHKVKSRTFHYPGGLVDFVKHINRTKNAIHSSIVDFSGKGTGHEVEIAMQWNAGYSESVHTFANTINTHEGGTHEEGFRSALTSVVNKYAKDRKLLKDKDPNLTGDDIREGLAAVISVKVSEPQFEGQTKTKLGNTEVKSFVQKVCNEQLTHWFEANPTDAKVVVNKAVSSAQARIAARKARELVRRKSATDIGGLPGKLADCRSTDPRKSELYVVEGDSAGGSAKSGRDSMFQAILPLRGKIINVEKARIDRVLKNTEVQAIITALGTGIHDEFDIGKLRYHKIVLMADADVDGQHISTLLLTLLFRFMRPLIENGHVFLAQPPLYKLKWQRSDPEFAYSDRERDGLLEAGLKAGKKINKEDGIQRYKGLGEMDAKELWETTMDPSVRVLRQVTLDDAAAADELFSILMGEDVDARRSFITRNAKDVRFLDV | reduced cleavage (5 to 100-fold)
